Measurements as given in PMC5039005.

Columns and labels:
[1] = biological target: Str-Ct.Samp1(1–180) (Chaetomium thermophilum); experiment: pull-down
[2] = biological target: Samp1-YFP (human) (UniProt Q5SNT2); experiment: cross-linking + co-IP

Substance | fold binding, RanGTP against RanGDP [1] [fold] | percent of RanGTP pulled down at a 1:1 molar ratio [1] [%] | percent of total RanGTP bound in live cells [2] [%]
His6-Ran (from UniProt P62826 1-216) (natural protein) | 1.8 | 40 | –
Ran (endogenous in tsBN2 and BHK-21 cells) (from UniProt A0A8C2MF66 1-216) (natural protein) | – | – | 1
